Laboratory results reported in article PMC6689050, “A switch element in the autophagy E2 Atg3 mediates allosteric regulation across the lipidation cascade” (Nature Communications, 2019).
Blank lines part the entries; values can stand above or below the binder they belong to.

Key:
[1] = target: T1, Atg12–Atg5 conjugate (His-Atg12 100–186 conjugated to Atg5 1–284), minimal yeast autophagy E3 (S. cerevisiae, UniProt P38316 100-186; Q12380 1-284, conjugated to Atg5 (Atg12–Atg5 conjugate) | conjugated to Atg12 (Atg12–Atg5 conjugate)); test: SEC; purified His-Atg12–Atg5 combined with Atg16 1–46 in a 1:2 molar ratio, Superdex-200; peak fractions of the complex harvested; settings: both partners purified
T1 construct: Atg12, S. cerevisiae, residues 100–186; Atg5, S. cerevisiae, residues 1–284, untagged; Covalent conjugate formed in E. coli by co-expressed Atg7 and Atg10; No removal of the His tag is told; also called His-Atg12–Atg5; minimal yeast E3; source: E. coli BL21, co-expressed with Atg7 1–630 and Atg10; purified (Ni-NTA, cation exchange); not shown: His6, N-terminal, kept
T1 sequence (looked up) 1: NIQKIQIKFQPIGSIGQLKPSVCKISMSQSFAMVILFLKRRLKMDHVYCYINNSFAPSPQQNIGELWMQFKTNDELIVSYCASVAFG
T1 sequence (looked up) 2: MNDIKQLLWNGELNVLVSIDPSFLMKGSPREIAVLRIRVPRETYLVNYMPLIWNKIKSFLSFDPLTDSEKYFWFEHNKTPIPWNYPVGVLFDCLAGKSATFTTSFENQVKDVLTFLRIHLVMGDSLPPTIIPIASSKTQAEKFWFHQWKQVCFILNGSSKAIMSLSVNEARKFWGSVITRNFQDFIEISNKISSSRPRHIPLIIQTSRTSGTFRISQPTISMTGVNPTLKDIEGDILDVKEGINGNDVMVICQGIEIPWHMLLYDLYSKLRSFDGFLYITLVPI

[2] = target: T2, Atg3^∆FR (yeast Atg3 lacking the flexible region) (S. cerevisiae, UniProt P40344 1-310, ∆FR (FR, residues 85–159)); test: NMR
T2 sequence: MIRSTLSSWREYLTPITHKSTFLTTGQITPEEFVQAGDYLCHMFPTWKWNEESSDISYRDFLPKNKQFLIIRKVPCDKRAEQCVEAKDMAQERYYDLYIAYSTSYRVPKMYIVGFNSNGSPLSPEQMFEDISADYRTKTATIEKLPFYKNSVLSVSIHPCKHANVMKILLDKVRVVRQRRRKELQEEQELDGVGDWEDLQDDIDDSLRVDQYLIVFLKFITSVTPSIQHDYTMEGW

[3] = target: T2, Atg3^∆FR (yeast Atg3 lacking the …); test: NMR; average over E123IR residues
[4] = target: T1, Atg12–Atg5 conjugate (His-Atg12 100–186 …); test: NMR titration; 0.1 mM 15N-labeled Atg3^FR 86–159 titrated with 0–150 µM unlabeled Atg12–Atg5; [15N,1H] TROSY; 25 °C, 20 mM MES pH 6.5, 100 mM NaCl, 10% D2O; settings: both partners purified
[5] = target: T3, Atg3^FR (residues 86–159), the intrinsically disordered flexible region of yeast Atg3 (S. cerevisiae, UniProt P40344 86-159); test: NMR; average over E123IR residues; Atg12–Atg5 with Atg16
T3 chain: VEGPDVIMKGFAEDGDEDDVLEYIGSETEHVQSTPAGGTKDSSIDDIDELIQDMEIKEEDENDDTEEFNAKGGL

B2: Atg3^FR 86–159 mutant I132D, L135D, I136D (printed elsewhere as I136R) (domain or fragment)
chain: VEGPDVIMKGFAEDGDEDDVLEYIGSETEHVQSTPAGGTKDSSIDDDDEDDQDMEIKEEDENDDTEEFNAKGGL
- Kd [2]: 994 µM

B4: Atg12–Atg5 conjugate (His-Atg12 100–186 conjugated to Atg5 1–284), minimal yeast autophagy E3 (complex)
chain 1: NIQKIQIKFQPIGSIGQLKPSVCKISMSQSFAMVILFLKRRLKMDHVYCYINNSFAPSPQQNIGELWMQFKTNDELIVSYCASVAFG
chain 2: MNDIKQLLWNGELNVLVSIDPSFLMKGSPREIAVLRIRVPRETYLVNYMPLIWNKIKSFLSFDPLTDSEKYFWFEHNKTPIPWNYPVGVLFDCLAGKSATFTTSFENQVKDVLTFLRIHLVMGDSLPPTIIPIASSKTQAEKFWFHQWKQVCFILNGSSKAIMSLSVNEARKFWGSVITRNFQDFIEISNKISSSRPRHIPLIIQTSRTSGTFRISQPTISMTGVNPTLKDIEGDILDVKEGINGNDVMVICQGIEIPWHMLLYDLYSKLRSFDGFLYITLVPI
modifications: conjugated to Atg5 (Atg12–Atg5 conjugate) | conjugated to Atg12 (Atg12–Atg5 conjugate)
- Kd [5]: 69 µM

Next, values leading:

- binding result [1]: binds
B1: Atg16 (residues 1–46) (domain or fragment, S. cerevisiae, UniProt Q03818 1-46, looked up)
chain: MGNFIITERKKAKEERSNPQTDSMDDLLIRRLTDRNDKEAHLNELF
notes: Atg16, S. cerevisiae, residues 1–46; also called Atg16 1–46; source: purified

- Kd [3]: 238 µM
- binding result [4]: binds
B3: Atg3^FR (residues 86–159), the intrinsically disordered flexible region of yeast Atg3 (domain or fragment, S. cerevisiae, UniProt P40344 86-159, looked up)
chain: VEGPDVIMKGFAEDGDEDDVLEYIGSETEHVQSTPAGGTKDSSIDDIDELIQDMEIKEEDENDDTEEFNAKGGL
notes: Atg3 (autophagy E2), S. cerevisiae, flexible region, residues 86–159; 15N-labelled (or 13C,15N-labelled) for NMR; The introduction gives the FR as residues 85–159, the construct is 86–159; also called Atg3^FR 86–159; holds the Atg3^E123IR element; source: purified
